± gives the uncertainty stated by the source.
B1: Zinc finger homeobox protein 3, residues 2643 to 2698; numbered along this chain, Q15911 (parent)
chain: RLRTTITPEQLEILYQKYLLDSNPTRKMLDHIAHEVGLKKRVVQVWFQNTRARERK

Variants of: B1
Assay: abundance fitness (aPCA) (normalised: wild type 0, dead -1); higher = more abundant; growth selection in yeast, the domain comes from the species named
Conditions: Homo sapiens

Row | Variant | abundance fitness
1 | RLRTTITPEQLEILYQKYLLDSNPTRKMLDHIAMEVGLKKRVVQVWFQNTRARERK | -0.092 ± 0.14
2 | RLRTTITPEQLEILYQKYLLDSNPTRKMLDHIANEVGLKKRVVQVWFQNTRARERK | -0.044 ± 0.18
3 | RLRTTITPEQLEILYQKYLLDSNPTRKMLDHIASEVGLKKRVVQVWFQNTRARERK | 0.009 ± 0.089
4 | RLRTTITPEQLEILYQKYLLDSNPTRKMLDHIAIEVGLKKRVVQVWFQNTRARERK | -0.632 ± 0.2
5 | RLRTTITPEQLEILYQKYLLDSNPTRKMLDHIAHEVGLYKRVVQVWFQNTRARERK | -0.114 ± 0.22
6 | RLRTTITPEQLEILYQKYLLDSNPTRKMLDHIAHEVGLCKRVVQVWFQNTRARERK | 0.184 ± 0.12
7 | RLRTAITPEQLEILYQKYLLDSNPTRKMLDHIAHEVGLKKRVVQVWFQNTRARERK | 0.132 ± 0.097
8 | RLRTTITPEQLEILYQVYLLDSNPTRKMLDHIAHEVGLKKRVVQVWFQNTRARERK | -0.52 ± 0.093
9 | RLRTTITPEQLEILYQTYLLDSNPTRKMLDHIAHEVGLKKRVVQVWFQNTRARERK | -0.59 ± 0.16
10 | RLRTTITPEQLEILYQNYLLDSNPTRKMLDHIAHEVGLKKRVVQVWFQNTRARERK | 0.228 ± 0.15
11 | RLRTTITPEQLEILTQKYLLDSNPTRKMLDHIAHEVGLKKRVVQVWFQNTRARERK | -0.007 ± 0.12
12 | RLRTTITPEQLEILGQKYLLDSNPTRKMLDHIAHEVGLKKRVVQVWFQNTRARERK | 0.126 ± 0.075
13 | RLRTTITPEQLEILIQKYLLDSNPTRKMLDHIAHEVGLKKRVVQVWFQNTRARERK | 0.183 ± 0.22
14 | RLRTTITPEQLSILYQKYLLDSNPTRKMLDHIAHEVGLKKRVVQVWFQNTRARERK | -0.114 ± 0.088
15 | RLRTTITPEQLLILYQKYLLDSNPTRKMLDHIAHEVGLKKRVVQVWFQNTRARERK | -0.188 ± 0.086
16 | RLRTTITPEQLEILYQKYLLDSNPTRKMLDHIAHEVGLKKRVVQNWFQNTRARERK | -0.489 ± 0.17
17 | RLRTTITPEQLEILYQKYLLDSNPTRKMLDHIAHEVGLKKRVVQVWRQNTRARERK | -0.757 ± 0.095
18 | RLRTTITPEQLEILYQKYLLDSNPTRKMLDHIAHEVGLKKRVVQVWAQNTRARERK | -0.904 ± 0.12
19 | RLRTTITPEQLEILYQKYLLDSNPTRKMLDHIAHEVGLKKRVVQVWLQNTRARERK | -0.639 ± 0.098
20 | RLRTTITPEQLEILYQKYLLDSNPTRKMLDHIAHEVGLKKRVVQVWNQNTRARERK | -0.835 ± 0.27
21 | RLRTTITPEQLEILYQKYLLDSNPTRKMLDHIAHEVGLKKRVVQVWFQLTRARERK | -0.334 ± 0.099
22 | RLRTTITPEQLEILYQKYLLDSNPTRKMLDHIAHEVGLKKRVVQVWFQKTRARERK | 0.011 ± 0.12
23 | RLRTTITPEQLEILYQKYLLDSNPTRKMLDHIAHEVGLKKRVVQVWFQETRARERK | 0.406 ± 0.11
24 | RLRTTITPEQLEILYQKYLLDSNPTRKMLDHIAHEVGLKKRVVQVWFQCTRARERK | -0.496 ± 0.12

Row | Variant | abundance fitness
25 | RLRTTITPEQLEILYQKYLLDSNPTRKMLDHIAHEVRLKKRVVQVWFQNTRARERK | -0.27 ± 0.071
26 | RLRTTITPEQLEILYQKYLLDSNPTRKMLDHIAHEVDLKKRVVQVWFQNTRARERK | -0.384 ± 0.1
27 | RLRTTITPEQLEILYQKYLLDSNPTRKMLDHIAHEVGLKKRVVQVWFQNNRARERK | -0.572 ± 0.36
28 | RLRTTITPEQLEILYQKYLLDSNPTRKMLDHIAHEVGLKKRVVQVWFQNTQARERK | 0.229 ± 0.12
29 | RLRTTITPEQLEILYQKYLLDSNPTRKMLDHIAHEVGLKKRVVQVWFQNTAARERK | 0.13 ± 0.076
30 | RLRTTITPEQLEILYQKYLLDSNPTRKMLDHIAHEVGLKKRVVQVWFQNTRACERK | 0.052 ± 0.12
31 | RLRTTITPEQLEILYQKYLLDSNPTRKMLDHIAHEVGLKKRVVQVWFQNTRAAERK | 0.092 ± 0.076
32 | RLRTTITPEQLEILYQKYLLDSNPTRKMLDHIAHEVGLKKRVVQVWFQNTRAEERK | 0.288 ± 0.11
33 | RLRTTITPEQLEILYQKYLLDSNPTRKMLDHIAHEVGLKKRVVQVWFQNTRAPERK | -0.266 ± 0.14
34 | RLGTTITPEQLEILYQKYLLDSNPTRKMLDHIAHEVGLKKRVVQVWFQNTRARERK | 0.228 ± 0.076
35 | RLITTITPEQLEILYQKYLLDSNPTRKMLDHIAHEVGLKKRVVQVWFQNTRARERK | 0.19 ± 0.14
36 | ALRTTITPEQLEILYQKYLLDSNPTRKMLDHIAHEVGLKKRVVQVWFQNTRARERK | 0.267 ± 0.21
37 | RLRTTITPEQLEILYQKYLLDSNPTRKMHDHIAHEVGLKKRVVQVWFQNTRARERK | -0.766 ± 0.2
38 | RLRTTITPEQLEILYQKYLLDSNPTRKMRDHIAHEVGLKKRVVQVWFQNTRARERK | -0.544 ± 0.079
39 | RLRTTITPEQLEILYQKYLLDSNPTRKMADHIAHEVGLKKRVVQVWFQNTRARERK | -0.552 ± 0.099
40 | RLRTTITPEQLEILYQKYLLDSNPTRKMCDHIAHEVGLKKRVVQVWFQNTRARERK | -0.056 ± 0.11
41 | RLRTTITPEQLEILYQKYLLDWNPTRKMLDHIAHEVGLKKRVVQVWFQNTRARERK | -0.491 ± 0.11
42 | RLRTTITPEQLEILYQKYLLDMNPTRKMLDHIAHEVGLKKRVVQVWFQNTRARERK | -0.247 ± 0.15
43 | RLRTTITPEQLEILYQKPLLDSNPTRKMLDHIAHEVGLKKRVVQVWFQNTRARERK | -0.847 ± 0.19
44 | RLRTTITPEQLEILYQKTLLDSNPTRKMLDHIAHEVGLKKRVVQVWFQNTRARERK | -1.03 ± 0.22
45 | RLRTTITPEQLEILYQKWLLDSNPTRKMLDHIAHEVGLKKRVVQVWFQNTRARERK | -0.401 ± 0.13
46 | RLRTTITPEQLEILYQKYLLDSNPTRKMLDHIAHEVGLKKRVVQVWFQNTRMRERK | -0.138 ± 0.11
47 | RLRTTITPEQLEILYQKYLLDSNPTRKMLDHIAHEVGLKKRVVQVWFQNTRYRERK | -0.221 ± 0.22
